Reference: IntAct's records for PubMed 18946488

B1: Rho-related GTP-binding protein RhoE (Mus musculus), P61588 (parent)
chain: MKERRASQKLSSKSIMDPNQNVKCKIVVVGDSQCGKTALLHVFAKDCFPENYVPTVFENYTASFEIDTQRIELSLWDTSGSPYYDNVRPLSYPDSDAVLICFDISRPETLDSVLKKWKGEIQEFCPNTKMLLVGCKSDLRTDVSTLVELSNHRQTPVSYDQGANMAKQIGAATYIECSALQSENSVRDIFHVATLACVNKTNKNVKRNKSQRATKRISHMPSRPELSAVATDLRKDKAKSCTVM

Variants of: B1
Settings: with rock1_mouse Rock1, P70335
rock1_mouse Rock1, P70335, sequence (P70335 whole entry): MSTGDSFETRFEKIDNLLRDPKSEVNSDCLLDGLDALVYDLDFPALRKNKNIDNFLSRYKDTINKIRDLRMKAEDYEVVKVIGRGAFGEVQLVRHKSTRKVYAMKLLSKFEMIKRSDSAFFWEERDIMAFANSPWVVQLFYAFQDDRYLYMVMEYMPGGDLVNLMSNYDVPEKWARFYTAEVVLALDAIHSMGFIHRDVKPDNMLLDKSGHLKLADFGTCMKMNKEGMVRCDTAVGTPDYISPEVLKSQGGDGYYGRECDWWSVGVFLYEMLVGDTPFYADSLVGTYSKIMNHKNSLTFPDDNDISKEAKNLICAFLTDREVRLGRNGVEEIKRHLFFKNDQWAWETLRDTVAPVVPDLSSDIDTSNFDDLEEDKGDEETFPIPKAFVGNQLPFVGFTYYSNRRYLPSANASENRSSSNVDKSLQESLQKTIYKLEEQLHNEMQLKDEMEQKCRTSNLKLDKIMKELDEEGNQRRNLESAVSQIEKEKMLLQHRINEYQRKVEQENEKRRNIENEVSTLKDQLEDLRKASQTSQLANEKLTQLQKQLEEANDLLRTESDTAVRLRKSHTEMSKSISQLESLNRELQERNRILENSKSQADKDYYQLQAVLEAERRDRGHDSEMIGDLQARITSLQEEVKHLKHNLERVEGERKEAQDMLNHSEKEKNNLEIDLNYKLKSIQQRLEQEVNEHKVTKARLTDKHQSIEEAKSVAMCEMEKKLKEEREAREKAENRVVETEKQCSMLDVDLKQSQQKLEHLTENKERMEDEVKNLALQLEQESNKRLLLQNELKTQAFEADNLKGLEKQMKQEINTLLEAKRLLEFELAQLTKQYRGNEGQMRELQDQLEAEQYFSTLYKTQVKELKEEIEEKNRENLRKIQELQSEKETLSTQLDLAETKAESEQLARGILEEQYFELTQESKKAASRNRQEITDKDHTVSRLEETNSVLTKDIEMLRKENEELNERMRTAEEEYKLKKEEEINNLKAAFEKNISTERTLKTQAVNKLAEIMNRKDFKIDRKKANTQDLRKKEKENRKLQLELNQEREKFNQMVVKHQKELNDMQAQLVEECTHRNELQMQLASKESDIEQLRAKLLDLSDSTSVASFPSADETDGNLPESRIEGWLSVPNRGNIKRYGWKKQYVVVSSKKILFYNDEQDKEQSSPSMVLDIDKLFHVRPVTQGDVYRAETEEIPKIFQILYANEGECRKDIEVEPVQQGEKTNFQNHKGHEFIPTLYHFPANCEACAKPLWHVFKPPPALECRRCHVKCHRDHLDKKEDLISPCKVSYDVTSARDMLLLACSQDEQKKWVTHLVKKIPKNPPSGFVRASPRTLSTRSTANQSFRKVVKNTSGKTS

| effect of a mutation on the interaction | Variant |
| --- | --- |
| disrupting interaction | MKERRASQKLSSKSIMDPNQNVKCKIVVVGDSQCGKTALLHVFAKDCFPENYVPTVFENYTASFEIDTQRIELSLWDTSGSPYYDNVRPLSYPDSDAVLICFDISRPETLDSVLKKWKGEIQEFCPNTKMLLVGCKSDLRTDVSTLVELSNHRQTPVSYDQGANMAKQIGAATYIECSALQSENSVRDIFHRATLACVNKTNKNVKRNKSQRATKRISHMPSRPELSAVATDLRKDKAKSCTVM [V192R] |

Variants of: B1
Settings: with rock1_mouse Rock1, P70335
Remark: another data set of the same source

| effect of a mutation on the interaction | Variant |
| --- | --- |
| disrupting interaction | MKERRASQKLSSKSIMDPNQNVKCKIVVVGDSQCGKTALLHVFAKDCFPENYVPTVFENYTASFEIDTQRIELSLWDTSGSPYYDNVRPLSYPDSDAVLICFDISRPETLDSVLKKWKGEIQEFCPNTKMLLVGCKSDLRTDVSTLVELSNHRQTPVSYDQGANMAKQIGAARYIECSALQSENSVRDIFHVATLACVNKTNKNVKRNKSQRATKRISHMPSRPELSAVATDLRKDKAKSCTVM [T173R] |
